Data: PMC8012802

Columns and labels:
Test in all cases: SEC-MALS; MiniDAWN TREOS II with Superdex 200 10/300 increase, 20 mM Tris-HCl pH 8.0, 100 mM NaCl, 0.5 ml/min; monomer and 6-mer peaks
[1] = target: OrfG C-terminal subdomain (OrfG_(223–331): from Ala223 to Asp331) (Streptococcus thermophilus (ICESt3))
[2] = target: OrfG central domain (OrfG_(64–204): from Ser64 to Ala204) (Streptococcus thermophilus (ICESt3))
[3] = target: OrfG soluble domain (OrfG_(64–331): from Ser64 to Asp331) (Streptococcus thermophilus (ICESt3))

OrfG C-terminal subdomain (OrfG_(223–331): from Ala223 to Asp331) (domain or fragment)
stoichiometry N [1]: 6

OrfG central domain (OrfG_(64–204): from Ser64 to Ala204) (domain or fragment)
stoichiometry N [2]: 6

OrfG soluble domain (OrfG_(64–331): from Ser64 to Asp331) (domain or fragment)
mass fraction of the 6-mer peak [3]: 2.7% | stoichiometry N [3]: 6
